Earlier results as cited in paper PMC5156371.
Where “and” joins values, the source holds several entries; their conditions need not be identical. Identical values can stand only once. Like-named read-outs stand apart in the source and are kept apart here.

Tests used:
[1] = target: MAL TIR (Homo sapiens) (UniProt P58753)
[2] = target: MyD88 TIR (Homo sapiens) (UniProt Q99836)
[3] = target: MyD88 TIR (Homo sapiens) (UniProt Q99836); remark: listed apart in the source
[4] = target: MAL TIR (Homo sapiens) (UniProt P58753); remark: listed apart in the source

In the case of A46 87-229 (from UniProt P26672), the Kd [1] is listed as 2300 nM and 2240 nM and the Kd [2] is listed as 890 nM and 1240 nM.

In the case of A46 1-229 (from UniProt P26672), the Kd [3] is given as 460 nM and 520 nM and the Kd [4] is given as 1440 nM and 1560 nM.
